From publication PMC9482650, “Quantitative fragmentomics allow affinity mapping of interactomes” (Nature Communications, 2022)

T1: SYNJ2BP, P57105
T1 sequence (P57105 8-110, limits assumed, looked up): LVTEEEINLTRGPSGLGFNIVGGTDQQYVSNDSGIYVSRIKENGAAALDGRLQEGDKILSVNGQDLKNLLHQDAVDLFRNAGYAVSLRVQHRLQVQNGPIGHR


The binders below were run against T1, SYNJ2BP, P57105 (assay: holdup assay). Conditions: plain residues with an end cap or a label only (N-terminal biotin on a linker: ado-ado).
Design: key: below the threshold = too weak to quantify, mostly under pKd 3.1 to 4

Binder | pKd
APIAGFSSFV [SDK2, Q58EX2] | 4.72
KSRVAFFEEL [NF2, P35240;P35240-1] | below the threshold
ARSAAASNYV [CLDN4, O14493] | 3.85
PPGKHLVTEV [KCNA7, Q96RP8] | 4.86
ARESQKVSHV [FAM110B, Q8TC76] | 4.31
GTGYDRKDYV [CLDN3, O15551] | below the threshold
DGVNEKVSCV [HTR2A, P28223] | 4.3
EDPRVEVTQF [SLC22A9, Q8IVM8] | below the threshold
TRKRSGEAAV [PFKM, P08237] | 4.06
AEASVACSLC [PTGIR, P43119] | below the threshold
VKRNSKETVV [MARCHF3, Q86UD3] | 4.76
QRPYRRGSEI [KCNJ18, B7U540] | 4.91
NNNVVKVDSV [MTNR1A, P48039] | below the threshold
ELSATVTTDC [TRIP6, Q15654] | 4.68
NIAESLESLV [PTPRZ1, P23471] | 4.83
PSHPRLQTHV [KIRREL2, Q6UWL6] | 4.48
PYPTADHMLA [JUP, P14923] | below the threshold
AAVENKVTDL [PLXNB1, O43157] | below the threshold
STKRKLASAV [NCF1, P14598] | 4.85
VLYPREGTEV [FOXI1, Q12951] | 5.23
KRPEMTSSSV [MUC3A, MUC3B, Q02505;Q9H195] | 5.02
SFISKKEWYV [NECTIN1, Q15223] | below the threshold

Binder | pKd
SLNANEVEWF [RNF130, Q86XS8] | below the threshold
EDGESWEYQI [TRPV6, Q9H1D0] | below the threshold
NVYGIESVKI [GRIA2, P42262] | 3.52
EIPAQSPTCV [FZD10, Q9ULW2] | 4.36
LESTTVGTSV [KARS1, Q15046] | 5.44
LKDDELKTKL [SLCO1A2, P46721] | below the threshold
IDESKKEWLI [CNTNAP2, Q9UHC6] | below the threshold
TGLWKHETTV [ADGRA3, Q8IWK6] | 5.19
DPAESMESLV [PTPRG, P23470] | 4.74
MHIQEKGFHV [EPHA6, Q9UF33] | below the threshold
LAHVKHKEQI [AQP3, Q92482] | below the threshold
AQRARSPSDV [GPR12, P47775] | 4.14
KPGKGSETVV [FZD4, Q9ULV1] | 4.3
QKAPTKEFYA [SDC2, P34741] | below the threshold
SRSVVESDEL [MYPN, Q86TC9] | below the threshold
NTLNRKTTPV [CACNG8, Q8WXS5] | 4.85
NISYRRESAI [KCNJ4, P48050] | 4.84
DFLSTFHIRI [CIB2, O75838] | below the threshold
DRIQSCLSDA [SBF1, O95248] | below the threshold
PYSESDDDWC [CACNA1A, O00555] | 3.6
MQHQRTHTRV [ZSCAN30, Q86W11] | 4.28
DTKNYKQTSV [CRIPT, Q9P021] | 5.12

Binder | pKd
PTPDLPQTRV [KLHDC7A, Q5VTJ3] | below the threshold
SVTSERETNI [SLC16A7, O60669] | 3.63
DDASLPVSDV [PLEKHA1, Q9HB21] | 3.59
NTANRRTTPV [CACNG2, Q9Y698] | 5.08
SPDRDRESIV [SCN5A, Q14524] | 4.47
RQKEVRESKC [SCN8A, Q9UQD0] | 4.23
QSYPSKHDYV [CLDN18, P56856] | below the threshold
TNSRHGETTV [FZD2, Q14332] | 5.08
PSVGSKKTVL [REELD1, A0A1B0GV85] | below the threshold
ARGPPRESEV [FAM110D, Q8TAY7] | 5.35
RSSGGDDFWF [KCNV1, Q6PIU1] | below the threshold
ILRKSTTTTV [PRR16, Q569H4] | 4.2
LPAVCYDIDI [PTTG2, Q9NZH5] | below the threshold
RDPPAEWTRV [PTPN18, Q99952] | below the threshold
QSGLYESEEL [MYOT, Q9UBF9] | 3.59
EPQYQPGENL [SRC, P12931] | below the threshold
KKMLQRRTLL [OR8G1, Q15617] | below the threshold
GIKKITSTAL [RPS6KA3, P51812] | 4.52
GEDRSPPTAL [MKNK1, Q9BUB5] | below the threshold
REEPDHSTEV [CCRL2, O00421] | 5.14
TISFTQTSQF [SLC1A1, P43005] | below the threshold
RFQQRMQTHV [KIRREL1, Q96J84] | 4.61

Same assay, conditions: plain residues with an end cap or a label only (N-terminal biotin on a linker: ahx)

Binder | pKd
TQKFRASTAL [FRMPD1, Q5SYB0] | 4.26
QNTDDVQTSF [ACE2, Q9BYF1] | below the threshold
QDEKVKESYV [ABCA1, O95477] | 5.22
QPRTWLQSPV [RTKN, Q9BST9] | 5.2
EKQAKGDTEF [CACYBP, Q9HB71] | below the threshold
APSRKLNTEI [TIAM1, Q13009] | below the threshold
TESNLQTSSC [CGN, Q9P2M7] | below the threshold
